Laboratory results taken from patent US20120271036A1.
Read-outs that look alike come from different tables or passages of the source.

Key:
[1] = target: Cul5(N), human Cullin5 residues 2-384 (V341R, L345D) after removal of GST (human) (UniProt Q93034); experiment: ITC, 30 C
[2] = target: Cul5(N), human Cullin5 residues 2-384 (V341R, L345D) after removal of GST (human) (UniProt Q93034); experiment: ITC; one set of sites model
[3] = target: Cul5(N), human Cullin5 residues 2-384 (V341R, L345D) after removal of GST (human) (UniProt Q93034)
[4] = target: Cul5(N), human Cullin5 residues 2-384 (V341R, L345D) after removal of GST (human) (UniProt Q93034); experiment: ITC, one set of sites fit of one isotherm with the actual BCvifVF concentration
[5] = target: Cul5(N), human Cullin5 residues 2-384 (V341R, L345D) after removal of GST (human) (UniProt Q93034); remark: listed apart in the source

Chain of Cul5(N), human Cullin5 residues 2-384 (V341R, L345D) after removal of GST (human) (Q93034 other isoform, or with tags, fused parts or gaps V341R L345D V341R L345D): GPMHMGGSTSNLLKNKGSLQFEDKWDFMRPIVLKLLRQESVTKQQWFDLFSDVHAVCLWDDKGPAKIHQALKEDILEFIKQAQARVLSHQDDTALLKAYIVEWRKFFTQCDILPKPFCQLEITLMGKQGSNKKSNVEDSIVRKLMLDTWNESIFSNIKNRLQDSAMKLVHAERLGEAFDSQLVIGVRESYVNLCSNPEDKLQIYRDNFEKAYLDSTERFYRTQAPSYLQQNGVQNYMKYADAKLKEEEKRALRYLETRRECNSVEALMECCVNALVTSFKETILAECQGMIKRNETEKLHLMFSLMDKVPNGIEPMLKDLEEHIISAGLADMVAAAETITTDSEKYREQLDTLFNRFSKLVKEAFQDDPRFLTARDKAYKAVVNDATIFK

BCvifSS: EloB (1-118) / EloC (17-112) / vif (95-192) (A123S, L124S) (from UniProt P69723 95-192)
ΔH [1]: -7.28 kcal/mol
n (ITC binding stoichiometry) [2]: 1.01

BCvifVF: EloB (1-118) / EloC (17-112) / vif (95-192) (A123V, L124F) (from UniProt P69723 95-192)
n (ITC binding stoichiometry, one set of sites model) [3]: 0.901
n (ITC binding stoichiometry) [2]: 0.43
n (ITC binding stoichiometry, one set of sites model) [4]: 0.451

BCvif95-192: EloB (1-118) / EloC (17-112) / Vif (95-192) (from UniProt P69723 95-192)
ΔH [1]: -5.24 kcal/mol
N [5]: 1.01
ΔS [5]: 11.1
